What was measured:
Format in all cases: biochemical
[1] = substrate: NCC(=O)N1CCC[C@H]1C(=O)NCC(N)=O; assay: Conversion of [14C]GPG-NH2 to G-NH2 by fetal bovine serum; details: other: derived from GPG-NH2 disappearance curves; pH 3.5
Protocol: (§1) Next, the conversion of radiolabeled [^14C]GPG-NH2 to [^14C]G-NH2 by purified CD26, fetal bovine serum (FBS), human serum (HS) and CEM cell suspensions was analyzed. Radiolabeled [^14C]GPG-NH2 (radiospecificity: 58 mCi/mmol), in which the radiolabeled carbon is located in the main chain carbon of the glycine at the carboxylic acid end of the tripeptide, and [^14C]G-NH2 (radiospecificity: 56 mCi/mmol) in which carbon-2 was radiolabeled were synthesized by Amersham Pharmacia Biotech (Buckinghamshire, England). A variety of these [^14C]GPG-NH2 concentrations were exposed to purified CD26, FBS, HS and CEM cell suspensions and the conversion to G-NH2 was analyzed.
(§2) In another set of experiments, after one hour of exposure, disappearance of intact [^14C]GPG-NH2 was determined by HPLC analysis, as described above, using a cation-exchange Partisphere SCX column and a sodium phosphate buffer gradient at pH 3.5. GPG-NH2 was well-separated from G-NH2 (retention times: 25-27 min and 15-17 min, respectively). […] The GPG-NH2 conversion by the CEM cell suspensions proceeded linearly up to 1.5 mM. Only at higher GPG-NH2 concentrations (e.g., 3 and 5.4 mM), did the conversion curve for the CEM cell suspensions start to level-off slightly.

[2] = substrate: NCC(=O)N1CCC[C@H]1C(=O)NCC(N)=O; assay: Conversion of GPG-NH2 to GP-OH and G-NH2 by purified CD26; details: other: purified CD26; pH 3.5
Protocol: In some experiments, approximately, 100 μM GPG-NH2 was exposed to 25 units/l of purified CD26 and the mixture was incubated for up to 400 minutes at room temperature. The lymphocyte surface glycoprotein CD26/dipeptidylpeptidase IV was purified as described before. (See De Meester, J. Immunol. Methods, 189:99-105 (1996), herein expressly incorporated by reference in its entirety). At different time points, an aliquot of the reaction mixture was withdrawn and analyzed on an electrospray ion trap mass spectrometer (Esquire, Bruker, Bremen, Germany). The appearance of the dipeptide GP-OH upon release from the amino terminal end of the GPG-NH2 molecule, as well as, the disappearance of intact GPG-NH2 from the reaction mixture was determined and monitored by electrospray ion trap mass spectometric analysis at different time points (See FIG. 3). Under these experimental conditions, CD26 released GP-OH in a time-dependent manner from GPG-NH2, and virtually completely converted GPG-NH2 to GP-OH and G-NH2 within 4 to 6 hrs of the reaction.
Next, the conversion of radiolabeled [^14C]GPG-NH2 to [^14C]G-NH2 by purified CD26, fetal bovine serum (FBS), human serum (HS) and CEM cell suspensions was analyzed. […] A variety of these [^14C]GPG-NH2 concentrations were exposed to purified CD26, FBS, HS and CEM cell suspensions and the conversion to G-NH2 was analyzed. […]

[3] = substrate: NCC(=O)N1CCC[C@H]1C(=O)NCC(N)=O; assay: Conversion of [14C]GPG-NH2 to G-NH2 by human serum; details: other: derived from GPG-NH2 disappearance curves; pH 3.5
Protocol: as §1, §2

B1: dipeptidylpeptidase activity associated with FBS (Bos taurus) (protein)
chain: SRRTYTLADYLKNTFRMKFYNLRWVSDHEYLYKQENNILLFNAEYGNSSIFLENSTFDEFGHSINDYSVSPDRQYILFEYNYVKQWRHSYTASYDIYDLNKRQLITEERIPNNTQWITWSSVGHKLAYVWNNDIYVKNEPNSPSQRITWTGKKDVIYNGITDWVYEEEVFSAYSALWWSPNSTFLAYAQFNDTEVPLIEYSFYSDESLQYPKTVKIPYPKAGAVNPTIKFFVVNISSLSPNINATSQQIVPPGSVLIGDHYLCDVTWVTEERISLQWLRRIQNYSIMDICDYDRSTGRWISSVGRQHIEISTTGWVGRFRPAEPHFTSDGNSFYKIISNEEGYKHICHFQTDKRNCTFITKGAWEVIGIEALTSDYLYYISNEYKGMPGARNLYKIQLNDYTKVTCLSCELNPDRCQYYSVSFSQEAKYYQLRCSGPGLPLYTLHNSNNDKELRVLENNSDLDQVLQDVQMPSKKLDFIHLHGTKFWYQMILPPHFDKSKKYPLLLEVYAGPCSQKADAIFRLNWATYLASTENIIVASFDGRGSGYQGDKIMHAINRRLGTFEVEDQIEATRQFSKMGFVDDKRIAIWGWSYGGYVTSMVLGAGSGVFKCGIAVAPVSKWEYYDSVYTERYMGLPTPEDNLDSYRNSTVMSRAENFKQVEYLLIHGTADDNVHFQQSAQISKALVDAGVDFQSMWYTDEDHGIASSTAHQHIYTHMSHFLKQCFSLL
notes: from tissue; host or cells: fetal bovine serum
Which Km [1] does the source give for B1 here?
Its Km is 1400 µM.

B2: CD26/dipeptidylpeptidase IV (Homo sapiens) (protein)
chain: MKTPWKVLLGLLGAAALVTIITVPVVLLNKGTDDATADSRKTYTLTDYLKNTYRLKLYSLRWISDHEYLYKQENNILVFNAEYGNSSVFLENSTFDEFGHSINDYSISPDGQFILLEYNYVKQWRHSYTASYDIYDLNKRQLITEERIPNNTQWVTWSPVGHKLAYVWNNDIYVKIEPNLPSYRITWTGKEDIIYNGITDWVYEEEVFSAYSALWWSPNGTFLAYAQFNDTEVPLIEYSFYSDESLQYPKTVRVPYPKAGAVNPTVKFFVVNTDSLSSVTNATSIQITAPASMLIGDHYLCDVTWATQERISLQWLRRIQNYSVMDICDYDESSGRWNCLVARQHIEMSTTGWVGRFRPSEPHFTLDGNSFYKIISNEEGYRHICYFQIDKKDCTFITKGTWEVIGIEALTSDYLYYISNEYKGMPGGRNLYKIQLSDYTKVTCLSCELNPERCQYYSVSFSKEAKYYQLRCSGPGLPLYTLHSSVNDKGLRVLEDNSALDKMLQNVQMPSKKLDFIILNETKFWYQMILPPHFDKSKKYPLLLDVYAGPCSQKADTVFRLNWATYLASTENIIVASFDGRGSGYQGDKIMHAINRRLGTFEVEDQIEAARQFSKMGFVDNKRIAIWGWSYGGYVTSMVLGSGSGVFKCGIAVAPVSRWEYYDSVYTERYMGLPTPEDNLDHYRNSTVMSRAENFKQVEYLLIHGTADDNVHFQQSAQISKALVDVGVDFQAMWYTDEDHGIASSTAHQHIYTHMSHFIKQCFSLP
notes: made in house; by own knowledge a natural human source (seminal plasma), not recombinant
For B2, which Km [2] is on record?
Its Km is 183 µM.

B3: dipeptidylpeptidase activity associated with HS (Homo sapiens) (protein)
chain: SRKTYTLTDYLKNTYRLKLYSLRWISDHEYLYKQENNILVFNAEYGNSSVFLENSTFDEFGHSINDYSISPDGQFILLEYNYVKQWRHSYTASYDIYDLNKRQLITEERIPNNTQWVTWSPVGHKLAYVWNNDIYVKIEPNLPSYRITWTGKEDIIYNGITDWVYEEEVFSAYSALWWSPNGTFLAYAQFNDTEVPLIEYSFYSDESLQYPKTVRVPYPKAGAVNPTVKFFVVNTDSLSSVTNATSIQITAPASMLIGDHYLCDVTWATQERISLQWLRRIQNYSVMDICDYDESSGRWNCLVARQHIEMSTTGWVGRFRPSEPHFTLDGNSFYKIISNEEGYRHICYFQIDKKDCTFITKGTWEVIGIEALTSDYLYYISNEYKGMPGGRNLYKIQLSDYTKVTCLSCELNPERCQYYSVSFSKEAKYYQLRCSGPGLPLYTLHSSVNDKGLRVLEDNSALDKMLQNVQMPSKKLDFIILNETKFWYQMILPPHFDKSKKYPLLLDVYAGPCSQKADTVFRLNWATYLASTENIIVASFDGRGSGYQGDKIMHAINRRLGTFEVEDQIEAARQFSKMGFVDNKRIAIWGWSYGGYVTSMVLGSGSGVFKCGIAVAPVSRWEYYDSVYTERYMGLPTPEDNLDHYRNSTVMSRAENFKQVEYLLIHGTADDNVHFQQSAQISKALVDVGVDFQAMWYTDEDHGIASSTAHQHIYTHMSHFIKQCFSLP
notes: from tissue; host or cells: human serum
For B3, which Km [3] is on record?
The Km was 450 µM.

From patent US20080076824A1, “Compounds That Inhibit Replication Of Human Immunodeficiency Virus” (priority 2004, published 2008)
